Patent US20240218057A1 (ROCKEFELLER UNIVERSITY, published 2024)

B1: C1023 (antibody, V domains shown)
VH: QVQLVQSGAEMKKPGASVKISCKASGDTFTTNYFHWVRQAPGQGLEWMGIINPSAGSTTYAQRFQGRVTMTGDSSTNTVYLELRSLRSEDTAMYFCAKGSYIPAMRSSFDPWGQGTLVTVSS
VL: EIVLTQSPGTLSLSPGERATLSCRASQSVSHRYLAWYQQKPGQAPRLLIDGASNRATGIPDRFSGSGSGTDFTLTISRLEPEDFGVYYCQQYGSSPPFTFGQGTKLEIK
B2: C1018 (antibody, V domains shown)
VH: QVQLVESGGGVVQPGRSLRLLCAASGFTFNTHGMHWVRQAPGKGLEWVAVIWFDGSNKYYADSVKGRFTISRDNSTNTLYLQMNSLRAEDTAVYYCARVYGGLPYYYAIDVWGQGTTVTVSS
VL: QSVLTQPPSVSGAPGQRVTISCAGSSSNIGAGYGVHWSQQLPGRPPKLLIYGDSNRPSGVPDRFSGSNSGTSASLAITGLQAEDEAVYYCQSYDRSLRAWVFGGGTKLSVL
B3: C906 (antibody, V domains shown)
VH: EVQLVESGGGLIKPGRSLRLSCTASGFTFGDYAMTWFRQAPGKGLEWVGFIRSKAYGGTTGYAASVKYRFTISRDDSKSIVYLQMDSLKTEDTAVYYCTRWDGWSQHDYWGQGTLVTVSS
VL: DIVMTQSPLSLSVTPGEPASISCRSSQSLLHSNGINYFDWYLQKPGQSPQLLIYLGSNRASGVPDRFSGSGSGTDFTLKISRVEAEDVGVYYCMQVLQIPYTFGQGTKLEI
B4: C907 (antibody, V domains shown)
VH: QVQLQESGPGLVKPSETLSLTCTVSGGSITSYYWTWIRQSPGKGLEWIGYIYYIGSTNYNPSLKSRLTISLATSKNQFSLRLNSVTAADTAVYYCASYYNDTSGYSYGLDVWGQGTTVTVSS
VL: DIQMTQSPSSLSAFVGDRVTITCRAGQSISSYLHWYQQKPGKAPKLLIYATSTLQSGVPSRFSGRGSGTDFTLTISGLQPEDFATYYCQQSYSTPQTFGQGTKVEIK
B5: C1008 (antibody, V domains shown)
VH: EVQLVESGGGLIQPGGSLRLSCAASGFTVSSNYMSWVRQAPGKGLEWVSVIYSGGSTYYADSVKGRFTISRDNSKNTLYLQMNSLRAEDTAVYYCARVVGYDFWSGYDGGYFDYWGQGTLVTVSS
VL: QSALTQPASVSGSPGQSITISCTGTSSDVGSYNLVSWYQQHPGKAPKLMIYEVSKRPSGVSNRFSGSKSGNTASLTISGLQAEDEADYYCCSYAGSSTWVFGGGTKLTVL
B6: C1009 (antibody, V domains shown)
VH: EVQLVESGGGLLQPGGSLRLSCAASGFSVSSNYMTWVRQAPGKGLEWVAAIYSGDSTYYVDSVKGRFIISRDNSKNTVYLHLSSLRAEDTAVYYCARLVGYDFRSGSDGGYFDYWGHGTLVTVSS
VL: QSALTQPASVSGSPGQSITISCTGTSSDIGNYNLVSWYQQHPGKAPKLMIYDVSKRPSGVSNRFSGSKSGNTASLTISGLQAEDETDYYCCSYAGSSTWVFGGGTKLTVL
B7: C904 (antibody, V domains shown)
VH: QVQLQQWGAGLLKPSETLSLTCAVNGGSLSLYYWSWIRQSPGKGLEWIGEINHFGGSDYKPSLKSRVSISVDTSTNQFSLKLSSVTAADTAVYYCARKPLLHSNISPGAFDIWGQGTMVTVSS
VL: EIVLTQSPGTLSLSPGERATLSCRASQSVAGSYLAWYQQKPGQAPRLLIYGASSRATGVPDRISGSGSGTDFTLTISRLEPEDFAVYYCQQYTNTPRTFGGGTKVEI
B8: C1021 (antibody, V domains shown)
VH: QVQLVQSGAELKKPGASVKVSCKASGYTFSTYYIHWVRQAPGQGLEWMGIINPEAGSTSYAQKFQGRVTMTTDTSTSTVYMELISLRSQDTAIYYCARDAVGVPAINSLEYWGQGTLVTVSS
VL: EIVLTQSPATLSLSPGERATLSCRASQSISSYLAWYQQKPGQAPRLLIYDASNRATDISARFSGSGSGTDFTLTISSLEPEDFAVYYCQHRSNWPPSFTFGGGTKVEIK
B9: C909 (antibody, V domains shown)
VH: QVQLVQSGAEVKKPGASVKVSCRASGYTFPNYDLNWVRQATGQGLEWMGWMNPNSGNTGYAQKFQGRITMTRITSISTAYMELSSLRSEDTAVYYCARGRANWNSNFLLDSWGQGTLVTVSS
VL: QSALTQPASVSGSPGQSITISCTGTSSDVGGYNLVSWYQQYPGNVPKLMIYEDAKRPSGVSNRFSGSKSANTASLTISGLQAEDEADYYCCSYAGSSTRYVFGTGTKVTVL
B10: C905 (antibody, V domains shown)
VH: QVQLQESGPGLVTPSQTLSLTCSVSGGSIHSRDFYWGWIRQHPGKGLEWIGHIYYTGNTYYNPSLKSRVTISADTSKNQFSLKLSSVTAADTAVYYCARATVVITLHWFDPWGQGTLVTVSS
VL: NFMLTQPHSVSESPGKTVTISCTGSGGSIASNYVQWYQQRPGSAPTTVIYEDNERPSGVPDRFSGSIDSSSNSASLTISGVKTEDEADYFCQSYDVGNPVIFGGGTKLTVL
B11: C1020 (antibody, V domains shown)
VH: QVQLVQSGAEVKKPGASVKISCKASGYSFSNYYIHWVRQAPGQGLEWMGIINPSGNSISYAQKFQGRVTMTGDTSTSTVYMELSSLRSEDTAVYYCARSVFPVPAAGGCDYWGQGTLVTVSS
VL: DIQMTQSPSSLSASVGDRVTITCRASQSITTSLNWYQQKPGKAPKLLIYSASTLESGVPSRFSGSGSGTDFTLTISSLQPEDFATYYCQQTYRAPPYTFGQGTKLEIK
B12: C1016 (antibody, V domains shown)
VH: QVQLQESGPGLVKPSGTLSLTCAVSGGPISSNHWWSWVRQPPGKGLEWIGEVYRNGNTNYHPSLKSRVTMSIDNSKNQFSLSLTSVTAADTAVYYCARGGDLAMGPEYLDFWGQGTLVTVSS
VL: QSALTQPASVSGSPGQSITISCTGTSSDVGANNYVSWYQQHPGKAPKLMIYDVINRPSGVSDRFSGSKSGNTASLTISGLQAEDEADYYCSSFSTSSTLLFGGGTKLTVL
B13: C1022 (antibody, V domains shown)
VH: QVQLVQSGAEVKTPGASVKVSCQASGDTFTSQYLHWVRQAPGQGLEWMGIINPTAGSTTYAQKFQGRVTMTRDTSTSTVYMELRSLRSEDMAVYYCARGGFIPMVRGFIDHWGQGTLVTVSS
VL: QSALTQPASVSGSPGQSITISCTGTSSDVGGYNYVSWYQQHPGKAPKLMIYDVSNRPSGVSTRFSGSKSGNTASLTISGLQAEDEADYYCSSPTSSNTHVFGTGTKVTVL
B14: C903 (antibody, V domains shown)
VH: EVQLVESGGGLIQPGGSLRLSCAASGFIVSRNYMSWVRQAPGKGLEWVSIIYSGGSTFYADSVKGRFTISRDNSKNTVYLQMNSLRAEDTAVYYCARDYGDFYFDYWGQGTLVTVSS
VL: EIVLTQSPGTLSLSPGERATLSCRASQSVSSSYLAWYQQKPGQAPRLLIFDVSSRATGIPDRFSGSGSGTDFTLTISRLEPEDFAVYYCQQYGSSPRTFGQGTKVEIK
B15: C1012 (antibody, V domains shown)
VH: QVQLVQSGAEVKKPGSSVKVSCKASGGTVNNYAINWVRQAPGQGLEWMGGIVPIFGTPNYAQKFQGRVTITADESTSTAYMELSSLRSEDTAVYYCAKVSLTLPIAAAPRFWFDSWGQGTLVTVSS
VL: EIVMTQSPATLSVSPGERATLSCRASQSVSSHLAWYQQKPGQAPRLLIYGASTRATGIPARFSGSGSGTEFTLTISSLQSEDFAVYYCQQYHNWPPALTFGGGTKVEIK
B16: C1013 (antibody, V domains shown)
VH: QVQLVQSGVEVKKPGSSVKVSCKASGGTFTDYAFSWVRQAPGQGLEWMGGIVPIFATPDYAEKFRGRVTITADESTSTAYMELSTLKSEDTAVYYCARASLTLPIRAAPRFWFDAWGQGTLVTVSS
VL: EIVMTQSPATLSVSPGERATLSCRASQGVSTHLAWYQQKPGQAPRLLIYGASTRATGIPARFSGSGSGTEFTLTISSLQSEDFAVYYCQQYHKWPPALTFGGGTKVEIK
B17: C1019 (antibody, V domains shown)
VH: QVQLVESGGGVVQPGTPLRLSCAASGFTFSSYAMHWVRQAPGKGLEWVAMISYDGGNKYYADSVKGRFTISRDNSKNTLFLQMNSLRGEDTAVYYCARSFSIRIGHKDNWGQGTLVTVSS
VL: NFMLTQPHSVSESPGKTVTISCTGSSGSIANNYVQWYQQRPGSAPTPVIYEDDQRPSGVPDRFSGSIDSSSNSASLSISGLKTEDEADYYCQSYDSTNFWVFGGGTKLTVL
B18: C1024 (antibody, V domains shown)
VH: QVQLVESGGGVVQPGRSLRLSCAASGFTFSDYAMHWVRQAPGKGLEWVAMISYDGNSQYYADSVKGRFTISRDNSKNTLYLQMNILRPEDTAVYYCARTFSIRIGHHDYWGQGTLVTVSS
VL: NFMLTQPHSVSESPGKTVTISCTGSSGSIASNYVHWYQQRPGSAPTTVIFEDNQRPSGVPDRFSGSIDSSSNSASLTISGLKTEDEADYYCQSYDSSSFWVFGGGTKLTVL
B19: C908 (antibody, V domains shown)
VH: EVQLVQSGAEVKKPGESLKISCKASGYSFTIYWIGWVRQMPGKGLEWMGIIYPGESETRYSPSFQGQVTISADKSISTAYLQWRSLKASDTAMYYCARGGPPGGVKLELTDYWGQGTLVTVSS
VL: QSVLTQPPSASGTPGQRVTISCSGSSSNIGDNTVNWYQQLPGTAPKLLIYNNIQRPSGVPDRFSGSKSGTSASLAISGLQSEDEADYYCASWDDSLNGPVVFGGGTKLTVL
B20: C1014 (antibody, V domains shown)
VH: QVQLQESGPGLVRPSQTLSLTCTVSGGSIGSGAYWSWIRQHPAKGLEWIGYVYYSGSTFYNPSLETRVSISVDISKDQFSLELTSVTVADTAVYYCAREKIEVVSIEMRPHYYGIDVWGQGTTVTVSS
VL: EIVMTQSPATLSVSPGERATLSCRASQSISSNLAWYQQKPGQPPRLLIYGASTRATGIPARFSGSGSGTEFTLTISSLQSEDIAVYYCQHYNNWPPWTFGQGTKVDIK
B21: C1010 (antibody, V domains shown)
VH: QVQLVESGGGVVQPGRSLRLSCAASGFTFSSYAMHWVRQAPGKGLEWVAVISYDGSNKYYADSVKGRFTISRDNSKNTLYLQMNSLRAEDTAVYYCAKKGQPYCGGDCYFYYFDYWGQGTLVTVSS
VL: DIQMTQSPSSLSASLGDRVTITCQASQDISNYLNWYQQKPGKAPKLLIYDASNLETGVPSRFSGSGSGTDFTFTISSLQPEDIATYYCQQYDNLPPITFGQGTRLEIK
B22: C1011 (antibody, V domains shown)
VH: QVQLVESGGGVVQPGRSLRLSCAVSGFTFSHYAMHWVRQAPGKGLEWVAVISYDGADKYYADSVRGRFTIARDNSKNTLFLQMSSLRPEDTAVYYCAKKGQPYCGGDCHFYYLDYWGQGTLVTVSS
VL: DIQMTQSPSSLSASVGDRVTITCQASQDISNHLNWYQQKPGKAPKLLIYDASNLETGVPSRFSGSGSGTDFTFTISSLQAEDIATYYCQQYDNLPPITFGQGTRLEIK

What follows are binders tested against T1, SARS-COV-2 RBD (SARS-COV-2, UniProt P0DTC2 319-539) (assay: ELISA, RBD coated on plate).
T1 construct: also called WT RBD

First: B1
Second: B2
The EC50 of the first is 2.7-fold lower: 1.13 ng/mL for the first, 3.09 ng/mL for the second.

First: B3
Second: B4
The EC50 of the first is 3.5-fold lower: 1.07 ng/mL for the first, 3.71 ng/mL for the second.

Compared with B5, B6 is 13-fold lower in EC50: 17.2 ng/mL for the first, 1.34 ng/mL for the second.

B7 and B8 are within 1.5-fold of each other in EC50: 3.31 ng/mL for the first, 2.53 ng/mL for the second.

B9 and B10 are within 1.5-fold of each other in EC50: 3.24 ng/mL for the first, 3.06 ng/mL for the second.

B11 and B12 are within 1.5-fold of each other in EC50: 2.06 ng/mL for the first, 2.16 ng/mL for the second.

Compared with B13, B14 is 1.5-fold higher in EC50: 1.66 ng/mL for the first, 2.54 ng/mL for the second.

First: B15
Second: B16
The EC50 of the first is 2.7-fold lower: 3.29 ng/mL for the first, 8.92 ng/mL for the second.

B17 and B18 are within 1.5-fold of each other in EC50: 2.8 ng/mL for the first, 2.37 ng/mL for the second.

Compared with B19, B20 is 2.3-fold higher in EC50: 1.27 ng/mL for the first, 2.95 ng/mL for the second.

First: B21
Second: B22
The EC50 of the first is 1.6-fold higher: 2.45 ng/mL for the first, 1.49 ng/mL for the second.
